{"source": "paper PMC5494197", "about": "“Deregulation of mitochondrial F1FO-ATP synthase via OSCP in Alzheimer’s disease” (Nature Communications, 2016)", "target": "T1, Aβ1–42 peptide (UniProt P05067 672-713)", "T1 construct": "amyloid beta 1-42, cut product of the amyloid beta precursor protein (APP); For neurons and isolated mitochondria the peptide was prepared as oligomeric Aβ (HFIP film, DMSO, HAM'S F-12, 4 °C for 24 h); for the pull-down the methods say only 'Aβ peptide'; also called amyloid beta; oligomeric Aβ1–42; source: synthetic peptide, bought: GenicBio", "test": "pull-down; GST-tagged OSCP on glutathione agarose as bait, incubated overnight at 4 °C with Aβ peptide; immunoblotting or coomassie staining", "conditions": "both partners purified", "data": [{"binder": "GST-tagged OSCP (oligomycin sensitivity conferring protein), wild type (natural protein, human, UniProt P48047 24-213, looked up, oligomycin sensitivity conferring protein (OSCP) subunit of mitochondrial F1FO-ATP synthase, human cDNA (Gene Name ATP5O, NCBI Gene ID 539) in pGEX-4t-1; it may tell the limits of the construct; also called GST-OSCP; wild-type OSCP) FAKLVRPPVQVYGIEGRYATALYSAASKQNKLEQVEKELLRVAQILKEPKVAASVLNPYVKRSIKVKSLNDITAKERFSPLTTNLINLLAENGRLSNTQGVVSAFSTMMSVHRGEVPCTVTSASPLEEATLSELKTVLKSFLSQGQVLKLEAKTDPSILGGMIVRIGEKYVDMSVKTKIQKLGRAMREIV", "values": [{"measurement": "binding result", "value": "binds"}]}]}
